Test system: MS2 coat protein
Test: apparent KD of MS2 coat protein; designed switch direction (-1 OFF switch, 1 ON switch): -1; higher = weaker reporter binding
Method in brief: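 Designed RNA switches sharing common flanks were transcribed on Illumina chips by stalled E. coli RNA polymerase. They were titrated with SNAP-549-labelled MS2 coat protein, from 0.7 or 1.5 nM doubling to 3 µM, in Tris-HCl pH 7.5 buffer with KCl, MgCl2, BSA, DTT, tRNA and Tween-20. Titrations ran without input, with 200 uM small-molecule ligand, or with an oligonucleotide input. The apparent KD of each design is the median over its clusters, after curve-fitting of normalised cluster fluorescence.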

[1] = Eterna round: R95, input ligand: FMN 200 uM
[2] = Eterna round: R95, input ligand: microRNA oligo, concentration not stated
[3] = Eterna round: R95, input ligand: none
[4] = input ligand: microRNA oligo, concentration not stated

| Sequence | apparent KD of MS2 coat protein [1] [nM] | apparent KD of MS2 coat protein [2] [nM] | apparent KD of MS2 coat protein [3] [nM] | apparent KD of MS2 coat protein (input ligand: FMN 200 uM) [nM] | apparent KD of MS2 coat protein (input ligand: none) [nM] | apparent KD of MS2 coat protein [4] [nM] |
| --- | --- | --- | --- | --- | --- | --- |
| AUGAGGAUAAGAAAGUGAAGAUAGAGCGUACCUUAUGGAACAUGAGGAUCACCCAUGUAGCUUUUUGCUCGUCUUAU [JR_SV3TOV2_Sub031] (puzzle: Sensor v3, turn-off variant 2) | 19.9 | 49.5 | 14.7 | – | – | – |
| AUGAGGUUAGGAUAUACAUGAGGAUCACCCAUGUUGAAAGGUUAGAUAGGCGAAGAUGGUAGAAGGAACAAAGA [JR_Exclu3_Sub054] (puzzle: Exclusion 3) | 29.4 | 38.2 | 43.9 | – | – | – |
| AUGAGGUUAGGAUAUACAUGAGGAUCACCCAUGUUGAAAGGUUAGAUAGGCGAAGCUGGUAGAAGGAACGGAGC [JR_Exclu3_Sub055] (puzzle: Exclusion 3) | 27.9 | 29.8 | 32.8 | – | – | – |
| AUGAUAUAACAGGAUAUUUGGCGCGGAUGCAGAGAAGAAGGGUUGACAUGAGGAUCACCCAUGUGAUCCUUCAA [Eternabot (L1) Solution 18] (Eterna round: R97, puzzle: Exclusion 6) | – | – | – | 20.1 | 14.3 | – |
| AUGCCCUGAGGAUAUCUCAUCCCGCACAUGAGGAUCACCCAUGUUCUUCUCCGGGCUCCGAGAGAAGGCAGGCCUA [Armus6] (Eterna round: R97, puzzle: Exclusion 5) | – | – | – | 68.2 | 102 | – |
| AUGGGUCCUCUCGGAGCUACAUGAGGAUCACCCAUGUGUAUUGAGGAUAUCCACUGCUCAGGACGGGAGAAGGCAGUGUACUGU [Ex NG3 #87] (Eterna round: R96, puzzle: Exclusion NG 3) | – | – | – | 51.4 | 58.4 | 46.3 |
| AUGUACCGGUGAGGAUAUUUUUAAUAGAGCUUUAUGAUAUACAUGAGGAUCACCCAUGUUACUUUAAAGAAGGCAUCGGAUUAA [Mat - Exclusion NG 2 - Mod of JL - D90] (Eterna round: R96, puzzle: Exclusion NG 2) | – | – | – | – | – | 12.8 |
| AUGUGCACGCUGCGAUCCUACAUGAGGAUCACCCAUGUGGUCUGGUGGCGUGGGUCACCGGACUUGGCUCGUCUUGU [salish99_S_TOV1_R5_081] (Eterna round: R97, puzzle: Sensor, turn-off variant 1) | – | – | – | 62.1 | 77.8 | – |
| AUGUUGCGAGGAUAUAUAAGGGUAUAAUAAUAAGAUAUGGAACAUGAGGAUCACCCAUGUAGAAGGUGCAUAAC [JR_Ex2_Sub040] (Eterna round: R97, puzzle: Exclusion 2) | – | – | – | 840 | 21.1 | – |
| AUGUUGCGAGGAUAUAUUUACUUGUUGUUAUUUGGUUGGGAACAUGAGGAUCACCCAUGUAGAAGGUGCAUAAC [JR_Ex2_Sub035] (Eterna round: R97, puzzle: Exclusion 2) | – | – | – | 58.9 | 62.5 | – |
| AUUAAAACAUAGGAUAUCGAAAUUAUUAUUUAACGAGAAGGAUGAACAUGAGGAUCACCCAUGUGGUAUCAUGG [Mat - Exclusion 6 - JL Mod - D28] (puzzle: Exclusion 6) | 307 | 367 | 610 | – | – | – |
| AUUAUGUUAGGAUAUGCUUAUGGUGGAUAAUCGGAUAUGAUGCAGAAGGGACAUGAGGAUCACCCAUGUACUGA [EX4 #24] (Eterna round: R97, puzzle: Exclusion 4) | – | – | – | 22.3 | 22.7 | – |
| AUUAUGUUAGGAUAUGCUUAUGGUGGAUAGUCCAGUAUGGUGUAGAAGGGACAUGAGGAUCACCCAUGUGCUGA [EX4 #33] (Eterna round: R97, puzzle: Exclusion 4) | – | – | – | 35.2 | 34 | – |
| AUUGUAUGGAAAGGAUAUAGAAUAUUAUUUUAACAUGAGGAUCACCCAUGUAACCUUAUGUGUAGCUAGAAGGUUCGUUUGUUA [Title] (Eterna round: R96, puzzle: Exclusion NG 2) | – | – | – | – | – | 69.2 |
| AUUGUGUUAGGAUAUAACAACUACUAAUAAAUUAGUAGUUGUUAGAAGGAACAUGAGGAUCACCCAUGUAUGAU [-21.1, -20.3 kcal, A 38%] (Eterna round: R97, puzzle: Exclusion 4) | – | – | – | 60 | 29.4 | – |
| AUUGUGUUAGGAUAUGCUUAUGGUGGGUAGUCCAGUAUGGAGUAGAAGGGACAUGAGGAUCACCCAUGUGCUCA [EX4 #38] (Eterna round: R97, puzzle: Exclusion 4) | – | – | – | 215 | 137 | – |
| AUUGUUUAUGUAGGAUAUGCCUGGCGUGCCUUCGCAGAAGGACAUGAGGAUCACCCAUGUAUUGCGGUCUGCGUUCAGAUCGCC [salish99_ExNG1_r4_027] (Eterna round: R96, puzzle: Exclusion NG 1) | – | – | – | 21.3 | 19.3 | 15 |

| Sequence | apparent KD of MS2 coat protein [1] [nM] | apparent KD of MS2 coat protein [2] [nM] | apparent KD of MS2 coat protein [3] [nM] | apparent KD of MS2 coat protein (input ligand: FMN 200 uM) [nM] | apparent KD of MS2 coat protein (input ligand: none) [nM] | apparent KD of MS2 coat protein [4] [nM] |
| --- | --- | --- | --- | --- | --- | --- |
| AUUGUUUAUGUAGGAUAUGCCUGGCGUGCCUUUGCAGAAGGACAUGAGGAUCACCCAUGUAACAUGAGGCUCACCCAUGUCGCU [salish99_ExNG1_r04_112] (Eterna round: R96, puzzle: Exclusion NG 1) | – | – | – | 432 | 311 | 220 |
| AUUUAAUUUAGCGAGAUCACAUGAGGAUCACCCAUGUAUAUAUAGGAUAUCAGCUCGUUUAGAGCUGAGAAGGAUAUAUACCGC [ExNG3/7-A2] (Eterna round: R96, puzzle: Exclusion NG 3) | – | – | – | – | – | 74 |
| AUUUGCACGCUGCGGUCCUACAUGAGGAUCACCCAUGUGGUCUGGUGGCGUGGGUCGCCGGACUUGGCUCGUCUUGA [salish99_S_TOV1_R5_032] (Eterna round: R97, puzzle: Sensor, turn-off variant 1) | – | – | – | 17.5 | 17.9 | – |
| AUUUUAAUAUAGGAUAUCGAAUUUAUUAUUUAACGAGAAGGAUGAACAUGAGGAUCACCCAUGUGGUAUCAUGG [JL-ex6-3.03] (puzzle: Exclusion 6) | 214 | 263 | 178 | – | – | – |
| AUUUUGUCAGGAUAUGACUAGUAGCACGAAAGUGCUACUACUUAGAAGGGACAUGAGGAUCACCCAUGUAUUCC [Bring Us a Shrubbery-10] (puzzle: Exclusion 4) | – | 15.1 | – | – | – | – |
| AUUUUGUCAGGAUAUUGUUAGUUUAGUUGUUUGUAUUAGUUCGAGAAGGGACAUGAGGAUCACCCAUGUGAAAA [Ex4 #71] (Eterna round: R97, puzzle: Exclusion 4) | – | – | – | 38.9 | 37.2 | – |
| CAAAAGAAAGGAUAUACUUGAGGAUCACCCAAGUAUGCCCGCUGAAGCGGGCCCUUGAGUAGAAGGUUCAUAAA [Ened] (Eterna round: R97, puzzle: Exclusion 3) | – | – | – | 33.2 | 15.6 | – |
| CAAAAGCUAGGAUAUACAUGAGGAUCACCCAUGUCGCACUCUAGACACGCCAUACAUAGUAGAAGGAGCAAUCU [EX3 B.18] (Eterna round: R97, puzzle: Exclusion 3) | – | – | – | 21.7 | 17.9 | – |
| CAAGCAGAAUAAAGGUCCGACAUGAGGAUCACCCAUGUUCGUCGGGAUAUGCUUCCUUUACGAGGGAGCACCAGAAA [Eternabot (L2) Solution 25] (Eterna round: R97, puzzle: Sensor, turn-off variant 1) | – | – | – | 34.3 | 38.2 | – |
| CAAUAUUACUGAGGAUAUCCUAGUGUAUUUCAGGGAGAAGGCGGACUCAACAUGAGGAUCACCCAUGUAAGACGGGUACUAGAU [Ex NG1 #17] (Eterna round: R96, puzzle: Exclusion NG 1) | – | – | – | 89.3 | 81.4 | 42.7 |
| CACAUGGGAACAUGAGGAUCACCCAUGUGAUAGAAAGGUAUGGAGGAUAUCAUACCAUCGCCGUGUGAGAAGGUCAGGCCAACA [Eternabot solution 46] (Eterna round: R96, puzzle: Exclusion NG 3) | – | – | – | 409 | 388 | 151 |
| CACCGUUAACUAGGAUAUCGUACAUGAGGAUCACCCAUGUAAUAAAUGAGAAUUUCGGAUGUAUGCGAGAAGGAGUAAAUCGGC [Ostricism 46 - Jieux - Exclusion NG 2] (Eterna round: R96, puzzle: Exclusion NG 2) | – | – | – | 40.8 | 37.3 | 27.6 |
| CACCGUUACACAGGAUAUGUUACAUGAGGAUCACCCAUGUAAUAAAUGAGAAUUUCGAAUGUAAUACAGAAGGGUGGAAUCGGC [Ostricism 73 - Jieux - Exclusion NG 2] (Eterna round: R96, puzzle: Exclusion NG 2) | – | – | – | 34.7 | 28.4 | 27.9 |
| CACCGUUACAGAGGAUAUGAUACAUGAGGAUCACCCAUGUAAUAAAUGAGAAUUUCGAAUGUACCUCAGAAGGCUGGAACCGGC [Ostricism 79 - Jieux - Exclusion NG 2] (Eterna round: R96, puzzle: Exclusion NG 2) | – | – | – | – | – | 31.1 |
| CACCGUUACGUAGGAUAUAGUACAUGAGGAUCACCCAUGUAAUAAAUGAGAAUUUCGGAUGUAUGCUAGAAGGACGAAAUCGGC [Ostricism 50 - Jieux - Exclusion NG 2] (Eterna round: R96, puzzle: Exclusion NG 2) | – | – | – | – | – | 39.9 |
| CACCGUUAGUGAGGAUAUAGUACAUGAGGAUCACCCAUGUAAUAAAUGAGAAUUUCGGAUGUAUGCUAGAAGGCACAAAUCGGC [Ostricism 51 - Jieux - Exclusion NG 2] (Eterna round: R96, puzzle: Exclusion NG 2) | – | – | – | – | – | 47.2 |
| CACGAAGAGUGAGGAUAUGUGCGACAAAGUUGCACAGAAGGCACAUGAGGAUCACCCAUGUAAGCUAGGUCGAAAGACCUAGCG [Omei Exc(NG)1 Av3] (Eterna round: R96, puzzle: Exclusion NG 1) | – | – | – | 47.5 | 23.8 | 20.2 |
